Measured values: the supplement of paper PMC10567573

B1: ZNF649 (parent)
chain: LTEHKRIHTGKKPHVCSLCGKAFY
B2: CD207 (parent)
chain: MTVEKEAPDAHFTVDKQNISLWPR

Variants of: B1
Assay: protein stability index of a GFP-peptide fusion (GPS, HEK-293T) (PSI 1-6); higher = more stable
Conditions: c terminus: a fixed tail appended
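Further: lentivirally expressed fusions sorted by FACS into six bins by GFP to DsRed ratio, PSI derived from sequencing read proportions per bin multiplied by bin number.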

Protein stability index, by site and new letter:
Y24: M 2.69; N 1.43; R 2.42; Q 3.04; T 3.42; V 2.33; P 3.45

Variants of: B2
Assay: as above
Conditions: c terminus: a fixed tail appended

Protein stability index of substitutions, site by site:
A7: C 3.31; M 2.61; P 3.54; S 3.71; I 2.67; E 4.23; L 2.96; Q 3.97; F 2.77; D 3.79; K 3.11; N 4.01; W 2.68; V 3.51; Y 2.93; R 2.54; T 3.31; H 3.32
Q17: D 3.73; F 1.89; E 3.26; W 1.56; V 2.39; H 3.05; M 2.15; Y 1.94; G 3.38; P 3.21; R 2.76; I 2.48; A 3.66; C 2.8; K 3.36; S 2.31; T 3.14; N 2.97; L 2.64
F12: Y 3.16; P 4.66; I 3.96; A 3.78; D 4.92; H 4.02; E 4.38; N 3.13; C 3.72; G 4.03; Q 4.5; R 4.04; M 4.14; K 4.05; V 3.74; L 3.72; W 3.35; S 4.1; T 4.09
K16: Q 3.01; R 3.26; W 2; S 3.79; P 3.26; L 2.62; E 4.13; H 3.53; N 3.49; V 2.93; I 2.39; C 3.76; M 2.83; Y 2.83; A 3.52; D 3.35; T 3.18; G 3.8; F 2.95
T13: R 2.66; K 3.61; P 3.19; M 3.12; D 3.96; N 3.63; A 3.53; V 3.42; F 3.13; G 3.04; W 2.54; I 3.49; C 3.2; Y 3.59; S 3.8; H 3.03; L 4.19; Q 3.43
E4: Y 2.43; D 3.67; V 3.38; H 3; S 3.68; T 2.77; N 2.86; F 2.28; M 3.2; C 3.11; R 3.02; L 2.79; A 3.17; W 1.99; G 3.37; Q 3.92; I 2.56; P 3.18
E6: D 3.31; I 2.37; T 3.08; M 2.52; G 3.27; A 3.21; P 3.14; L 2.72; R 2.74; C 2.32; S 3.01; W 2.29; H 2.83; Q 3.25; V 2.05; F 2.27; N 3.23; Y 2.38; K 3.47
V14: W 2.65; T 3.82; L 2.93; Y 2.48; E 3.79; K 3.41; C 3.27; N 3.36; S 3.81; A 3.45; H 3.13; D 4.11; R 3.05; F 2.42; Q 3.85; P 3.79; I 3.45; M 3.18; G 2.35
H11: Q 2.95; R 2.79; Y 2.28; T 3.8; V 3.55; L 3; I 2.89; C 3.01; S 3.58; N 3.68; D 3.58; A 3.38; K 3.4; P 3.55; M 2.88; G 3.06; E 4.08; W 1.97
T2: N 3.36; G 3.68; W 2.59; Q 3.54; V 3.21; M 3.86; F 2.71; L 3.17; H 3.08; C 2.54; R 2.83; I 2.94; S 3.57; A 3.35; K 3.65; Y 2.18; D 3.62
N18: R 3.14; Q 2.86; K 3.4; G 3; F 3; L 2.88; H 3.46; I 1.95; A 4.24; M 3.5; S 3.56; P 3.39; C 2.44; E 3.34; D 3.21
D9: I 2.19; Y 2.42; E 3.15; T 2.94; F 2.37; P 2.95; R 3.13; W 2.91; L 2.38; M 2.56; G 3.05; Q 3.23; C 3.01; S 3.25; N 3.27; K 2.44; A 2.79; H 2.89
D15: A 3.35; F 2.06; K 2.81; E 3.51; M 2.67; S 3.61; T 2.74; G 2.92; Y 1.98; I 2.31; R 3.06; H 2.48; N 2.54; C 3.35; Q 3.17; P 2.74
K5: V 1.53; E 4.03; F 2.02; T 2.89; L 1.86; Y 1.99; H 3.27; A 2.96; M 2.04; S 3.04; R 2.94; D 3.48; C 2.58; N 3.13; P 3.48; W 2.04; G 3.79; I 1.95
V3: F 2.85; D 4.12; R 3.9; I 3.33; H 3.54; C 2.68; G 3.19; E 3.72; T 3.57; M 3.09; P 4.07; W 2.86; A 3.47; L 3.44; Q 3.42; S 3.55; Y 2.75; K 3.79; N 3.93
M1: Q 3.8; A 3.62; S 3.57; R 3.98; D 4.23; E 3.36; L 3.07; C 3.38; K 2.81; G 4.16; N 3.68; Y 2.37; V 3.76; T 3.45; F 2.11; P 4.17; W 3.13; I 2.8; H 3.27
P8: L 2.65; F 1.98; S 3.65; N 3.48; W 1.93; C 2.96; R 3.71; E 4.39; Q 3.24; D 3.67; M 3.17; I 3.22; K 3.54; A 3.52; H 4.79; V 2.86; T 3.17; Y 2.6; G 3.02
A10: R 2.48; S 3.5; C 3.77; Q 3.46; N 3.23; I 2.21; M 2.31; V 2.91; K 3.09; G 3.75; F 2.84; Y 3.3; L 2.91; P 3.01; E 4.07; T 3.83; H 3.76; W 2.4; D 3.56
